Source: the supplement of paper PMC10567573

B1: EHMT1 (parent)
chain: FHKDCASRVNNASYCPHCGEESSK

Variants of: B1
Test: protein stability index of a GFP-peptide fusion (GPS, HEK-293T) (PSI 1-6); higher = more stable
Conditions: c terminus: a fixed tail appended
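Note: lentivirally expressed fusions sorted by FACS into six bins by GFP to DsRed ratio, PSI derived from sequencing read proportions per bin multiplied by bin number.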

Protein stability index, by site and new letter:
S22: Y 3.36 | R 3.05 | T 3.54 | M 3.31 | D 3.35 | N 3.93 | W 2.54 | E 4.01 | A 3.46 | P 3.03 | C 3.59 | I 3.68 | Q 3.55 | G 2.81 | L 3.22 | V 3.38 | K 3.77 | H 4.09 | F 3.2
V9: E 3.87 | C 4.31 | R 3.63 | H 4.71 | S 3.79 | G 4.14 | Q 3.74 | Y 3.21 | A 3.47 | W 2.31 | N 3.39 | P 3.84 | L 3.73 | T 3.73 | K 3.66 | D 3.94 | I 3.65 | M 3.37 | F 2.92
R8: H 4.23 | I 3.94 | M 3.37 | G 3.97 | F 2.35 | N 3.94 | P 3.37 | S 3.49 | C 3.66 | E 2.86 | D 3.43 | L 3.39 | T 3.1 | Y 2.63 | Q 3.59 | K 3.46 | V 3.34 | A 3.78 | W 1.91
E20: M 3.15 | I 2.95 | T 3.19 | S 3.16 | W 3.77 | R 3.16 | A 3.21 | C 3.55 | D 3.92 | P 3.27 | L 2.78 | Q 3.14 | K 3.68 | G 3.6 | V 2.94 | F 2.93 | H 2.99 | Y 3.46 | N 3.37
N10: F 2.82 | M 2.98 | K 3.1 | I 3.08 | R 2.99 | Q 3.52 | L 3.31 | Y 1.95 | A 3.6 | D 3.9 | V 2.92 | W 2.37 | H 3.94 | S 3.24 | T 3.03 | E 3.69 | G 3.74 | P 3.33 | C 3.75
C18: H 3.62 | N 3.67 | K 3.85 | I 3.04 | M 2.96 | T 3.58 | P 3.79 | W 2.31 | D 4.03 | Q 3.59 | S 3.68 | V 3.75 | G 3.63 | A 3.76 | Y 3.16 | E 4.36 | F 2.93 | L 2.76 | R 3.73
N11: A 2.91 | W 1.89 | H 3.82 | M 3.36 | P 3.25 | V 3.12 | Y 2.68 | F 2.48 | I 2.22 | K 3.54 | E 3.46 | T 3.21 | Q 3.47 | G 3.37 | C 3.21 | R 3.47 | D 3.64 | L 2.53 | S 3.08
E21: F 2.93 | I 2.83 | W 2.8 | Q 3.12 | C 3.07 | A 3.52 | P 2.41 | N 3.17 | M 2.64 | H 3 | S 2.71 | T 3.4 | V 2.32 | Y 2.63 | K 3.22 | L 2.55 | D 3.22 | R 2.92 | G 3.29
C15: R 3.49 | A 3.32 | H 3.56 | V 3.67 | T 3.59 | P 3.75 | K 3.68 | N 3.88 | D 3.89 | S 3.55 | I 3.32 | W 2.08 | Q 3.67 | E 4.22 | F 3.04 | Y 2.74 | M 3.16 | L 3.45 | G 3.82
P16: T 3.42 | Q 3.61 | H 3.15 | Y 2.58 | E 3.94 | I 3.36 | M 3.07 | N 3.29 | W 1.66 | C 3.11 | V 3.89 | K 3.57 | A 3.24 | G 3.24 | D 3.52 | F 2.73 | S 3.23 | L 3.35 | R 2.96
G19: Q 3.35 | D 3.9 | A 3.93 | E 4.05 | V 4.11 | N 3.5 | H 3.36 | F 3 | R 2.84 | L 3.67 | P 3.75 | C 3.59 | S 3.48 | M 3.55 | I 3.87 | W 2.96 | Y 3.91 | T 3.51 | K 3.65
Y14: G 3.38 | R 3.52 | I 3.47 | Q 4 | K 3.59 | A 3.31 | P 3.9 | M 3.59 | D 3.77 | F 3.36 | L 3.82 | C 3.66 | N 3.75 | V 3.44 | E 4.05 | T 3.73 | W 2.45 | S 3.26 | H 3.47
S23: I 3.87 | M 3.49 | F 3.63 | G 3.34 | D 3.39 | Y 3.6 | C 4.21 | W 2.69 | E 3.21 | V 3.41 | L 3.15 | P 3.15 | H 3.48 | T 3.72 | Q 3.89 | N 3.41 | K 3.16 | A 3.63 | R 3.21
S13: M 3.13 | Y 2.34 | N 3.6 | A 3.36 | F 2.34 | H 3.66 | R 3.16 | L 2.62 | K 3.46 | P 3.12 | G 3.97 | T 3.72 | D 3.81 | W 2.15 | I 2.17 | V 2.76 | Q 3.8 | E 3.77 | C 2.37
A12: T 3.31 | E 3.81 | P 3.25 | L 3.06 | Y 2.85 | W 2.54 | G 4.34 | D 4.27 | F 2.48 | C 3.35 | H 3.22 | V 3 | I 2.95 | Q 3.96 | N 3.37 | K 3.36 | R 3.33 | M 3.24 | S 3.29
K24: V 3.47 | Q 3.49 | T 3.25 | L 3.43 | H 3.45 | M 3.26 | R 2.5 | W 3.05 | S 3.48 | C 3.7 | F 3.07 | A 2.92 | D 3.58 | I 3.27 | G 3.5 | Y 2.9 | N 2.99 | E 3.11 | P 3.22
S7: P 2.87 | K 4.04 | V 3.72 | T 3.28 | W 2.76 | Y 2.12 | N 2.83 | M 3.54 | L 3.44 | Q 3.23 | R 3.97
H17: Y 2.87 | D 3.84 | T 3.58 | W 2.16 | S 3.4 | E 3.47 | A 3.68 | G 3.18 | L 3.05 | V 3.54 | N 3.85 | K 3.43 | C 3.45 | Q 3.21 | P 2.87 | I 3.35 | M 3.14 | F 2.96 | R 3.5
